In patent publication US20160137732A1:

Target: complement protein C1q (human) (UniProt P02745)
Experiment: cell-based or functional assay

Sequence of UniProt P02745 (P02745 23-245 limits assumed, chain 1 of 3): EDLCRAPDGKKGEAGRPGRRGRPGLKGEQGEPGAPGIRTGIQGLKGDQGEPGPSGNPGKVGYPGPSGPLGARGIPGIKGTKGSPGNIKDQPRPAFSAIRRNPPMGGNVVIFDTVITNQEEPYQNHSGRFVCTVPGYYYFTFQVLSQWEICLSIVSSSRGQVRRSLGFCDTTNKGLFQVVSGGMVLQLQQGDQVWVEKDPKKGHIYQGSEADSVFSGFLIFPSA
Sequence of UniProt P02745 (P02746 28-253 limits assumed, chain 2 of 3, further chain): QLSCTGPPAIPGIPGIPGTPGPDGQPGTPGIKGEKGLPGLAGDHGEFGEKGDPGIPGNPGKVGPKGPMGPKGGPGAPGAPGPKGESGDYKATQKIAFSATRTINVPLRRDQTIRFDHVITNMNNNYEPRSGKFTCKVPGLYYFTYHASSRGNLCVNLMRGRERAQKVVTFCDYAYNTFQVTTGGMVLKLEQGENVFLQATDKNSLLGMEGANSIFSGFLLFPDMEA
Sequence of UniProt P02745 (P02747 29-245 limits assumed, chain 3 of 3, further chain): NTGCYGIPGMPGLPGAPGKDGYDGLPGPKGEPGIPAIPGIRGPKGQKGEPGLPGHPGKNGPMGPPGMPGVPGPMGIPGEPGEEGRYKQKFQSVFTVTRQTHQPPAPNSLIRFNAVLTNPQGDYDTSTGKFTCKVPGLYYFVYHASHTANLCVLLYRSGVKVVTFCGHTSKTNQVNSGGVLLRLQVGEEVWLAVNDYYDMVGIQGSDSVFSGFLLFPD

Row | average fold-increase in the EC50 value compared with wild-type Hu1D10-IgG1 antibody (CDC) [fold] | average fold-increase in the maximum percent lysis (CDC) [fold] | fold-increase in the EC50 value compared with wild-type Hu1D10-IgG1 antibody (CDC) [fold] | fold-increase in the maximum percent lysis (CDC) [fold] | Substance
1 | 13 to 16 | 1.3 to 1.4 | – | – | Hu1D10-IgG1 double mutant S324N/I332F (antibody)
2 | 13 to 16 | 1.3 to 1.4 | – | – | Hu1D10-IgG1 double mutant S324N/I332M (antibody)
3 | 13 to 16 | 1.3 to 1.4 | – | – | Hu1D10-IgG1 double mutant S324W/I332F (antibody)
4 | 13 to 16 | 1.3 to 1.4 | – | – | Hu1D10-IgG1 double mutant S324W/I332M (antibody)
5 | – | – | 2.5 | 1.2 to 1.4 | Hu1D10-IgG1 single mutant I332F (antibody)
6 | – | – | 1.5 | 1.2 to 1.4 | Hu1D10-IgG1 single mutant I332G (antibody)
7 | – | – | 2.5 | 1.2 to 1.4 | Hu1D10-IgG1 single mutant I332M (antibody)
8 | – | – | 2 | – | Hu1D10-IgG1 single mutant S324M (antibody)
9 | – | – | 2 | – | Hu1D10-IgG1 single mutant S324Y (antibody)
